B1: H1.86 L1 XENP34542 (antibody, V domains shown)
VH: QLQVQESGPGLVKPSETLSLTCTVSGGSISNSYFSWGWIRQPPGKGLEWIGSFYYGEKTYYNPSLKSRATISIDTSKSQFSLKLSSVTAADTAVYYCPRGPTTIRGVIDSWGQGTLVTVSS
VL: EIVLTQSPATLSLSPGERATLSCRASQSVRSYLAWYQQKPGQAPRLLIYDASNRATGIPARFSGSGSGTDFTLTISSLEPEDFAVYYCQQRSNWPPTFGQGTKVEIK
B2: H1.82 L1 XENP34538 (antibody, V domains shown)
VH: B1 VH with T102S, T103M
VL: B1 VL
B3: H1.88 L1 XENP34544 (antibody, V domains shown)
VH: B1 VH with T103M, I104A
VL: B1 VL
B4: H1.83 L1 XENP34539 (antibody, V domains shown)
VH: B1 VH with T103A
VL: B1 VL
B5: H1.81 L1 XENP34537 (antibody, V domains shown)
VH: B1 VH with T102N, T103M
VL: B1 VL
B6: H1.99 L1 XENP34555 (antibody, V domains shown)
VH: B1 VH with T103M, V107S
VL: B1 VL
B7: H1.89 L1 XENP34545 (antibody, V domains shown)
VH: B1 VH with T103M, I104D
VL: B1 VL
B8: H1.104 L1 XENP34560 (antibody, V domains shown)
VH: B1 VH with T103M, S110V
VL: B1 VL
B9: H1.77 L1 XENP34533 (antibody, V domains shown)
VH: B1 VH with A90V, T103M
VL: B1 VL
B10: H1.95 L1 XENP34551 (antibody, V domains shown)
VH: B1 VH with T103M, R105K
VL: B1 VL
B11: H1.84 L1 XENP34540 (antibody, V domains shown)
VH: B1 VH with T103E
VL: B1 VL
B12: H1 L1.3 XENP34566 (antibody, V domains shown)
VH: B1 VH with T103M
VL: B1 VL with A9P
B13: H1 L1.5 XENP34568 (antibody, V domains shown)
VH: B1 VH with T103M
VL: B1 VL with A19V
B14: H1.85 L1 XENP34541 (antibody, V domains shown)
VH: B1 VH with T103S
VL: B1 VL
B15: H1.105 L1 XENP34561 (antibody, V domains shown)
VH: B1 VH with T103M, S110Y
VL: B1 VL
B16: H1.78 L1 XENP34534 (antibody, V domains shown)
VH: B1 VH with P98A, T103M
VL: B1 VL
B17: H1.58 L1 XENP34514 (antibody, V domains shown)
VH: B1 VH with K58D, T103M
VL: B1 VL
B18: H1.65 L1 XENP34521 (antibody, V domains shown)
VH: B1 VH with Y60S, T103M
VL: B1 VL
B19: H1.74 L1 XENP34530 (antibody, V domains shown)
VH: B1 VH with S78N, T103M
VL: B1 VL
B20: H1.62 L1 XENP34518 (antibody, V domains shown)
VH: B1 VH with Y60F, T103M
VL: B1 VL
B21: H1.42 L1 XENP34498 (antibody, V domains shown)
VH: B1 VH with S52N, T103M
VL: B1 VL
B22: H1.54 L1 XENP34510 (antibody, V domains shown)
VH: B1 VH with Y55S, T103M
VL: B1 VL
B23: H1.43 L1 XENP34499 (antibody, V domains shown)
VH: B1 VH with S52T, T103M
VL: B1 VL
B24: H1.64 L1 XENP34520 (antibody, V domains shown)
VH: B1 VH with Y60N, T103M
VL: B1 VL
B25: H1.47 L1 XENP34503 (antibody, V domains shown)
VH: B1 VH with F53V, T103M
VL: B1 VL
B26: H1.75 L1 XENP34531 (antibody, V domains shown)
VH: B1 VH with K83Q, T103M
VL: B1 VL
B27: H1.56 L1 XENP34512 (antibody, V domains shown)
VH: B1 VH with E57G, T103M
VL: B1 VL
B28: H1.60 L1 XENP34516 (antibody, V domains shown)
VH: B1 VH with K58S, T103M
VL: B1 VL
B29: H1.51 L1 XENP34507 (antibody, V domains shown)
VH: B1 VH with Y54N, T103M
VL: B1 VL
B30: H1.55 L1 XENP34511 (antibody, V domains shown)
VH: B1 VH with G56S, T103M
VL: B1 VL
B31: H1.61 L1 XENP34517 (antibody, V domains shown)
VH: B1 VH with T59I, T103M
VL: B1 VL
B32: H1.72 L1 XENP34528 (antibody, V domains shown)
VH: B1 VH with A69V, T103M
VL: B1 VL
B33: H1.67 L1 XENP34523 (antibody, V domains shown)
VH: B1 VH with N62S, T103M
VL: B1 VL

Changes are numbered by the printed parent chain.

T1 sequence (P37173 23-166): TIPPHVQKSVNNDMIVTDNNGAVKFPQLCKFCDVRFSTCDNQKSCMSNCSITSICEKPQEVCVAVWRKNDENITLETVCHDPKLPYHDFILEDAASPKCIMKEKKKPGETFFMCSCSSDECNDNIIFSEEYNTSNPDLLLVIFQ

One test has as its target T1, human TGFßRII (antigen of the Octet experiments) (human, UniProt P37173 23-166). Put plainly: BLI (Octet).
Consider B1, for which the Kd amounted to 0.0662 nM.
On the same count and under the same terms, the value for B2 was 2.41 nM; that for B3 was 0.402 nM; that for B4 was 3.47 nM.
For the molecule B5, the Kd worked out at 300 nM.
The same measure, in the same setting: the value for B6 was 0.431 nM.
B7 returned a Kd of 0.141 nM. This Kd lies about 3.1-fold lower than the previous one.
Still for that read-out and setting: to B8 belongs 0.601 nM.
Still for that read-out and setting: to B9 belongs 0.749 nM; to B10, 2.34 nM; to B11, 4.16 nM.
Same read-out and setting: to B12 belongs 0.547 nM; to B13, 1.3 nM.
B14 had a Kd of 4 nM.
Still for that read-out and setting: the value for B15 was 0.455 nM; that for B16 was 0.699 nM.

For another test, the target named is T1, human TGFßRII (antigen of the Octet …). Put plainly: BLI (Octet). The source holds these as a separate data set. (In BLI a coated tip is dipped into the sample, and binding shifts an interference pattern.)
The molecule B17 yielded a Kd of 2.49 nM.
Molecule B18 displayed a Kd of 15.1 nM. Against the preceding molecule, the Kd is about 6.1-fold higher.
The molecule B19 had a Kd of 0.771 nM.
Take B20: the Kd amounted to 1.35 nM.
Turning to B21, binding was put at a Kd of 2.59 nM.
The molecule B22 registered a Kd of 0.666 nM.
On the same count and under the same terms, the value for B23 was 0.627 nM; that for B24 was 5.37 nM; that for B25 was 0.677 nM.
Still for that read-out and setting: to B26 belongs 1.18 nM; to B27, 0.203 nM.
Still for that read-out and setting: the value for B28 was 3.86 nM; that for B29 was 35.6 nM.
For B30, the affinity, expressed as Kd, was 0.348 nM.
Regarding B31, the Kd was found to be 0.791 nM. This Kd is about 2.3-fold higher than that of the molecule before.
The same measure, in the same setting: to B32 belongs 0.42 nM.
Same read-out and setting: to B33 belongs 1.95 nM.

The term Kd denotes the free concentration of one partner at which half of the binding sites on the other are occupied at equilibrium, for simple one-to-one binding.

The record behind these values is patent publication US20220144956A1 (published 2022).
